B1: DKK1: Dickkopf-1, secreted Wnt antagonist protein that binds Wnt co-receptor LRP6; used purified, in conditioned media or retrovirally expressed with HA tag (protein, UniProt O94907 32-266, looked up)
Dickkopf-related protein 1: TLNSVLNSNAIKNLPPPLGGAAGHPGSAVSAAPGILYPGGNKYQTIDNYQPYPCAEDEECGTDEYCASPTRGGDAGVQICLACRKRRKRCMRHAMCCPGNYCKNGICVSSDQNHFRGEIEETITESFGNDHSTLDGYSRRTTLSSKMYHTKGQEGSVCLRSSDCASGLCCARHFWSKICKPVLKEGQVCTKHRRKGSHGLEIFQRCYCGEGLSCRIQKDHHQASNSSRLHTCQRH
modifications: HA tag in some uses
B2: FRP1: human secreted Frizzled Related Protein 1, Wnt antagonist; expressed from pBabe-derived retrovirus with carboxy-terminal HA tag (protein, UniProt Q8N474 32-314, looked up)
Secreted frizzled-related …: SEYDYVSFQSDIGPYQSGRFYTKPPQCVDIPADLRLCHNVGYKKMVLPNLLEHETMAEVKQQASSWVPLLNKNCHAGTQVFLCSLFAPVCLDRPIYPCRWLCEAVRDSCEPVMQFFGFYWPEMLKCDKFPEGDVCIAMTPPNATEASKPQGTTVCPPCDNELKSEAIIEHLCASEFALRMKIKEVKKENGDKKIVPKKKKPLKLGPIKKKDLKKLVLYLKNGADCPCHQLDNLSHHFLIMGRKVKSQYLLTAIHKWDKKNKEFKNFMKKMKNHECPTFQSVFK
modifications: C-terminal HA tag
notes: human secreted Frizzled Related Protein 1, Wnt antagonist; expressed from pBabe-derived retrovirus with carboxy-terminal HA tag

How the values were obtained:
Assay type in all cases: cell-based, human
[1] = test system: MDAMB157 cells; assay: tBh-induced apoptosis (Annexin/PI FACS) in MDAMB157 cells; conditions: each concentration of tBh, over-expression vs vector
Experimental: (§1) To assess the effects of Wnt inhibition by FRP1 or DKK1 on the response of MDAMB157 cells to apoptotic stimuli, we exposed AB589 or MDAMB157 cells expressing either vector control, FRP1 or DKK1 to increasing concentrations of tert-butyl hydroperoxide (tBh) (Sigma) a known inducer of oxidative stress that causes DNA damage through reactive oxygen species (ROS) (Macip et al., (2003) Mol. Cell. Biol. 23:8576-8585), and analyzed the apoptotic response. Sub-confluent cultures were treated with increasing amounts of tert-butyl hydroperoxide (tBH) for 2 hours. Twenty-four hours later, cells were washed in PBS, trypsinized and incubated with Annexin and PI using the Annexin-V-Fluos Staining kit (Roche). Fluorescent stained cells were subjected to FACS (Beckton Dickinson FACScan) using Cell Quest 3.2 software (Beckton Dickinson) for acquisition and analysis.

[2] = test system: AB589 cells; assay: tBh-induced apoptosis (Annexin/PI FACS) in AB589 cells
Experimental: as §1

[3] = test system: ID2; assay: Northern blot of ID2 in MDAMB157 cells; conditions: stable expression
Experimental: (§2) Alterations in the expression of a number of genes identified as targets of canonical Wnt signaling have been reported, although it should be noted that there is variability among Wnt target genes in different cell systems (Giles et al., (2003). Biochim. Biophys. Acta 1653:1-24). To investigate the effects of FRP1 and DKK1 inhibition on gene expression in MDAMB157 breast tumor cells, Northern blot analysis was performed on representative Wnt transcriptional targets, including Myc (He et al., (1998) Science 281:1509-1512), the LEF-1 transcription factor (Filali et al., (2002) J. Biol. Chem. 277:33398-33410) and the dominant negative helix-loop-helix transcriptional regulator, Id2 (Rockman et al., (2001) J. Biol. Chem. 276:45113-45119).
(§3) Total RNAs from MDAMB157 cells exogenously expressing vector alone, FRP1, or DKK1 were extracted using Triazol (Invitrogen), separated by agarose gel electrophoresis (1% agarose gel) and transferred to a nylon membrane (Hybond, Pharmacia). Probes were labeled by the Random Prime Labelling System method (Amersham Biosciences), and hybridization was performed overnight utilizing the Hybrisol I solution (Serologicals Corporation) according to the manufacturer's instructions. Normalization was performed utilizing a commercial human GADPH control probe (BD Biosciences Clontech). Probes were labelled with α-^32P-dCTP.

[4] = test system: AB589; assay: Saturation density of AB589 cells; conditions: AB589 infected with retrovirus (data not shown)
[5] = test system: cyclin D1; assay: Northern blot of cyclin D1 in MDAMB157 cells; conditions: stable expression (data not shown)
Experimental: as §2
as §3, with “α-^32P-dCTP. […]” for “α-^32P-dCTP.”

[6] = test system: keratin 8; assay: RNA blot of keratin 8 in MDAMB157 cells; conditions: stable expression
Experimental: as §3
(§4) Since canonical Wnt signaling appears to be involved in maintaining epithelial progenitor cells of several tissues (van de Wetering et al. (2002) Cell 111:241-250; Alonso and Fuchs (2003) Genes Dev. 17:1189-1200; Reya et al. (2003) Nature 423:409-414; Polesskaya et al. (2003) Cell 113, 841-852), including the mouse mammary gland (Li et al. (2003) Proc Natl Acad Sci U.S.A. 100:15853-15858; Liu et al. (2004) Proc. Nat'l Acad. Sci. U.S.A. 101:4158-4163), we also investigated whether downregulation of Wnt signaling in MDAMB157 tumor cells affected their differentiated state. […] All of these findings provide evidence for a Wnt autocrine transforming mechanism in human tumor cells.

[7] = test system: MDAMB157 cells; assay: Saturation density (cell counts) of MDAMB157 cells; conditions: MDAMB157 over-expressing antagonist vs vector transduced parental cells
Experimental: MDAMB157 cells exogenously expressing either vector control, FRP1 or DKK I were transferred at 1.5×10^5 cells per well in 6-well plates. Cell counts were performed in duplicate at the indicated times, and values represent the mean of two independent experiments.

[8] = test system: H1355; assay: tBh-induced apoptosis in H1355 NSCLC cells; conditions: H1355 NSCLC cells (data not shown)
Experimental: as §1
We have also tested the effects of tBh on lung tumor cells with autocrine Wnt signaling in the presence or absence of the Wnt antagonists FRP and DKK. […] These findings indicate that inhibition of a Wnt autocrine signaling mechanism in tumor cells by Wnt antagonists such as FRP or DKK would make them more sensitive to the killing effects of standard chemo or irradiation therapies. We noted that levels of expression of these antagonists decreased with passage of the transfected and marker selected tumor cells.

[9] = test system: keratin 18; assay: RNA blot of keratin 18 in MDAMB157 cells; conditions: stable expression
Experimental: as §3, §4

[10] = test system: uncomplexed β-catenin; assay: Uncomplexed β-catenin in MDAMB157 breast tumor cells; parameters: levels of uncomplexed β-catenin: dose or concentration left out as unconfirmed; conditions: for uncomplexed β-catenin levels: stable expression by retroviral mediated transduction
Experimental: β-catenin levels were assessed using the GST-E-cadherin binding assay, which has been previously described (Bafico et al., (1998) Oncogene 16:2819-2825). Briefly, bacterially expressed GST-E-cadherin was purified with glutathione-Sepharose beads and incubated with 1 mg of each cell lysate. The GST-E-cadherin/[…]-catenin complex bound to the beads was recovered by centrifugation and analyzed by SDS-PAGE followed by immunoblotting. The uncomplexed β-catenin was detected using a monoclonal antibody to β-catenin (Transduction Laboratories). Unphosphorylated β-catenin was detected with a monoclonal antibody specific for β-catenin dephosphorylated at residues 27-37 (Alexis, Läufelfingen, Switzerland). FRP1-HA and DKK1-HA were detected with an anti-HA monoclonal antibody (Hybridoma Center, Mount Sinai School of Medicine, New York).
MDAMB157 cell cultures were exposed to increasing concentrations of purified DKK1, and then were solubilized and analyzed for uncomplexed β-catenin using immunoblot analysis and an anti-[…]-catenin antibody as described in Example 3.
MDAMB157 cells were infected with vector alone, FRP1-HA (described in Example 1), or DKK1-HA (described in Example 1) retroviruses and marker selected. Uncomplexed β-catenin protein levels were analyzed using immunoblot analysis with an anti-β-catenin antibody as described in Example 3. Expression of FRP1-HA or DKK1-HA were assessed by immunblot analysis of lysates using an anti-HA monoclonal antibody (Hybridoma Center, Mount Sinai School of Medicine, New York).

Row | Molecule | level of apoptosis [1] | apoptotic responses compared to the vector infected cells [2] | expression of ID2 [3] | saturation density [4] | levels of cyclin D1 [5] | expression of keratin 8 [6] | saturation density [7] | sensitivity to induction of apoptosis by tBh [8] | keratin 18 levels [9] | levels of uncomplexed β-catenin ([10]; increasing concentrations of purified DKK1) | uncomplexed β-catenin levels [10]
1 | B1 | statistically significant increase | no detectable differences | reduced | no detectable effect | did not observe significant changes | striking increase | decreased saturation density | more sensitive to induction of apoptosis | increase | dose dependent, marked reduction | dramatic reduction
2 | B2 | statistically significant increase | no detectable differences | reduced | no detectable effect | did not observe significant changes | striking increase | decreased saturation density | more sensitive to induction of apoptosis | increase |  | dramatic reduction
